Measured values taken from patent US20180079819A1 (IMMUNOGEN, published 2018).
Substitutions are numbered along the chain they refer to. Read-outs that look alike come from different tables or passages of the source.

B1: huCD123-6Gv4.7-CysMab-D4 (antibody)
heavy: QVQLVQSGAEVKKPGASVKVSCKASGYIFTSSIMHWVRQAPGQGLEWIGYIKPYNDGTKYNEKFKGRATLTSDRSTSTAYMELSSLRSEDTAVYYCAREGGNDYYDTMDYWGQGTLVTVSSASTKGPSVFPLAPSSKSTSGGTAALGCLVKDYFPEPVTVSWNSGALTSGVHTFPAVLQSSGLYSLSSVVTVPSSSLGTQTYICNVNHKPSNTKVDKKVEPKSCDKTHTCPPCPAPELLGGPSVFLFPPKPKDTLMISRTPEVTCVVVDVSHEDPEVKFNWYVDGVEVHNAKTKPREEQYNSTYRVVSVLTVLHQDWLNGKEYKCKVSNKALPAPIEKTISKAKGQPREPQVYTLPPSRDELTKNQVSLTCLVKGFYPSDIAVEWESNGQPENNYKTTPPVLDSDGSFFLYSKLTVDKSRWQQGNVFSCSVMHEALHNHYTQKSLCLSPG
light: DIQMTQSPSSLSASVGDRVTITCRASQDINSYLSWFQQKPGKAPKTLIYRVNRLVDGVPSRFSGSGSGNDYTLTISSLQPEDFATYYCLQYDAFPYTFGQGTKVEIKRTVAAPSVFIFPPSDEQLKSGTASVVCLLNNFYPREAKVQWKVDNALQSGNSQESVTEQDSKDSTYSLSSTLTLSKADYEKHKVYACEVTHQGLSSPVTKSFNRGEC
modifications: D4 linked through the engineered Cys in the heavy chain CH3 domain (5th to the last residue of SEQ ID NO: 54; EU/OU position 442); 1.8 mol D4/mol antibody
B2: huCD123-6Gv4.6-D2 (antibody, human IgG1, kappa)
heavy: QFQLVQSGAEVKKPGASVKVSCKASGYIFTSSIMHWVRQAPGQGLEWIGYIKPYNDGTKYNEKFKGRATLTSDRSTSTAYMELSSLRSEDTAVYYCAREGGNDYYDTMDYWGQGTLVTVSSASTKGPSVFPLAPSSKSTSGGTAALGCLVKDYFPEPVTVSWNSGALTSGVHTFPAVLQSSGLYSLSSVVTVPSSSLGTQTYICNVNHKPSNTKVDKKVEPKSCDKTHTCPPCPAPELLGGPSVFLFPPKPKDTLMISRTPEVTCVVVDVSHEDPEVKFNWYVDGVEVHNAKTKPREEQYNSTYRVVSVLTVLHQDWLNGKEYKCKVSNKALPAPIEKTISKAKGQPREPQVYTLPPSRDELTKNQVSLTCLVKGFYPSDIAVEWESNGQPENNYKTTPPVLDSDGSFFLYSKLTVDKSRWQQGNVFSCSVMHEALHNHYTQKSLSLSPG
light: B1 light
modifications: D2 linked at Lys residues; sites not stated; D2 linked at Lys residues; sites and drug load not stated
B3: lysine-linked huCD123-6-IGN conjugate with D1 (antibody, human IgG1, kappa)
heavy: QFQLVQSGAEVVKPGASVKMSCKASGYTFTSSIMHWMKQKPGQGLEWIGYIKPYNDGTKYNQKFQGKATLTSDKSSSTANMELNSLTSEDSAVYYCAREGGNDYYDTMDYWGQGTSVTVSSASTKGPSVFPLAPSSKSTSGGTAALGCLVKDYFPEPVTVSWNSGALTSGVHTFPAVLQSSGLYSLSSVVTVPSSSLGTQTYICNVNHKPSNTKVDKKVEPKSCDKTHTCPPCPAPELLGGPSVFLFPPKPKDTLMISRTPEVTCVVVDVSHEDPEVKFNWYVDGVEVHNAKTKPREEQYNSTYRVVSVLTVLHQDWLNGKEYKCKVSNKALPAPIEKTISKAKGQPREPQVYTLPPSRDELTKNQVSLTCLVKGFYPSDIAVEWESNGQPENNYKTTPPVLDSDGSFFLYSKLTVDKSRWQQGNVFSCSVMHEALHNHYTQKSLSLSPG
light: B1 light with L11M, D17E, A43S, N69Q, T72S, Q79E, F83M, A84G, T85I, V104L
modifications: D1 linked at Lys residues; sites not stated; D1 linked at Lys residues; sites and drug load not given
B4: huCD123-6Rv1.1-D2 (antibody, human IgG1, kappa)
heavy: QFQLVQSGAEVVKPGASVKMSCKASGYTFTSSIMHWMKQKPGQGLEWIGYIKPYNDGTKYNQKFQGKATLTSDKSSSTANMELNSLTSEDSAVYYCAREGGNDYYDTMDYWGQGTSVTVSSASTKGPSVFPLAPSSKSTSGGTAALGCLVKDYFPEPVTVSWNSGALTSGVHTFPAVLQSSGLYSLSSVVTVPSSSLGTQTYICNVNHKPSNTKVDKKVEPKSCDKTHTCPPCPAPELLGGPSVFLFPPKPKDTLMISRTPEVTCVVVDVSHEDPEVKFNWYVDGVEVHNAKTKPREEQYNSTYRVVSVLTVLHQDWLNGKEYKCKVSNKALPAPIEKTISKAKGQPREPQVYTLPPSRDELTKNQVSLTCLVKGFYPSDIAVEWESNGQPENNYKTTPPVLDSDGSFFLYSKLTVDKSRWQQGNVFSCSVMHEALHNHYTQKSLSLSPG
light: B1 light with L11M, D17E, A43S, N69Q, T72S, Q79E, F83M, A84G, T85I, V104L
modifications: D2 linked at Lys residues; sites not stated; D2 linked at Lys residues; sites and drug load not stated
B5: huCD123-6Gv4.7S3-sSPDB-D1 (antibody, human IgG1, kappa)
heavy: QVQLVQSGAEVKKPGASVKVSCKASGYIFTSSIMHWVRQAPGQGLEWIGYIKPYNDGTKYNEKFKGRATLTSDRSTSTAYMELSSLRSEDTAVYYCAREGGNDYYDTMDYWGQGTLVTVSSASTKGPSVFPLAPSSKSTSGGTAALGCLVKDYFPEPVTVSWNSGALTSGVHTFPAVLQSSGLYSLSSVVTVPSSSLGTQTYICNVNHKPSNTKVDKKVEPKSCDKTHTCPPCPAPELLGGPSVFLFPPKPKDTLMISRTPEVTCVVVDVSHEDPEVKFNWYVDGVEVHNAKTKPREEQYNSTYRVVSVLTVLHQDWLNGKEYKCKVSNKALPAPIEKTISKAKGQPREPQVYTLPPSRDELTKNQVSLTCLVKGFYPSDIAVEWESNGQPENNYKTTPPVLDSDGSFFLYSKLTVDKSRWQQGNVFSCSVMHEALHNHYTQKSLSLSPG
light: B1 light with D1S
modifications: D1 linked at Lys residues via a sulfonated SPDB linker; sites not stated; D1 linked at Lys residues via a sulfonated SPDB linker; average of 2.9 D1 per antibody, sites not stated
notes: also called huCD123Gv4.7S3-sulfo-SPDB-D1
B6: huCD123-6Gv4.7S3-D2 (antibody, human IgG1, kappa)
heavy: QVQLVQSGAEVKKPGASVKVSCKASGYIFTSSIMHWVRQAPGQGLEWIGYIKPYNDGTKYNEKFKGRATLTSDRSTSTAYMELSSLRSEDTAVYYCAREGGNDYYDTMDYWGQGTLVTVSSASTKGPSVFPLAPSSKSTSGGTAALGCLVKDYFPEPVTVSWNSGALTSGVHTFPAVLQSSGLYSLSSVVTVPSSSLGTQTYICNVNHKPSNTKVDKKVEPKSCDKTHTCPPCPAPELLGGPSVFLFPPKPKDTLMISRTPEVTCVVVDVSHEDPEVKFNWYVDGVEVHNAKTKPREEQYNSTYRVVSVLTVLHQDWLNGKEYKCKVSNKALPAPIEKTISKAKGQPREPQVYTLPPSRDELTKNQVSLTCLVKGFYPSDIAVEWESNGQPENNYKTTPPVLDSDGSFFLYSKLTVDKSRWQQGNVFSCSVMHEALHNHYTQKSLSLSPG
light: B1 light with D1S
modifications: D2 linked at Lys residues; sites not stated; D2 linked at Lys residues; average of 2.9 D2 per antibody, sites not stated
B7: huCD123-6Gv4.7S3-SeriMab-D8 (antibody, human IgG1, kappa)
heavy: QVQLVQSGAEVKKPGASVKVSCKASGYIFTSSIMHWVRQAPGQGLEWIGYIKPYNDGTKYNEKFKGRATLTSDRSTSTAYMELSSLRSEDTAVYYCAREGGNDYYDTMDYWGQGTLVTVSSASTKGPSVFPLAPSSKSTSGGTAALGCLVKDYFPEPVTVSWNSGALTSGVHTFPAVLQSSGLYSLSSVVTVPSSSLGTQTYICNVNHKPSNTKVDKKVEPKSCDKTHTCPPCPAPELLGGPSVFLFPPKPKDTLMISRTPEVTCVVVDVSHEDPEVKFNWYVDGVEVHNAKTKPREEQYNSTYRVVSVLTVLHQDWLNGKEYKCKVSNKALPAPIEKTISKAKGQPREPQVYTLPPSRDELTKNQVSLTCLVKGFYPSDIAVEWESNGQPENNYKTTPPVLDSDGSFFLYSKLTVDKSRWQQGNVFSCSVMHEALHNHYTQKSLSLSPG
light: B1 light with D1S
modifications: D8 linked through the oxidized N-terminal Ser on the light chain
B8: lysine-linked huCD123-6-IGN conjugate with DGN462 (antibody, human IgG1, kappa)
heavy: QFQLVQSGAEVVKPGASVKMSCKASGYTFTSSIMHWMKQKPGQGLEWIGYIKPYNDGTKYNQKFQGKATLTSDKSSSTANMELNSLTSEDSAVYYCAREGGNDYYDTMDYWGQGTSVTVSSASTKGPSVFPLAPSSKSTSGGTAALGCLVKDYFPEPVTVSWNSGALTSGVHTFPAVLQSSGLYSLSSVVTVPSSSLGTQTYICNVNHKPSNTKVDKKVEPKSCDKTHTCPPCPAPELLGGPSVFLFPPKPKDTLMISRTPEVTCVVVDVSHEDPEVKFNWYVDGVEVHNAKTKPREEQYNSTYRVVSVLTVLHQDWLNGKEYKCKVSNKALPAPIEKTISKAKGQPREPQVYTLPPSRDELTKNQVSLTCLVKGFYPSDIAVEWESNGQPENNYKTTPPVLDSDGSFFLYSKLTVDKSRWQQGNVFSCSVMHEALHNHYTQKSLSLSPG
light: B1 light with L11M, D17E, A43S, N69Q, T72S, Q79E, F83M, A84G, T85I, V104L
modifications: DGN462 linked at Lys residues; sites not stated; DGN462 linked at Lys residues; sites and drug load not given

Key:
[1] = molecular target: T1, human CD123 (IL-3Rα, interleukin-3 receptor alpha chain) (human, UniProt P26951 19-378); test: flow cytometry on HNT-34 cells, PE-conjugated goat anti-human secondary
T1 construct: CD123 on human cell lines (TF-1, HNT-34, MOLM-13 and other AML, B-ALL, CML and NHL lines) or on 300-19 cells stably expressing human CD123; also called CD123 antigen; human CD123 antigen
T1 sequence (P26951 19-378): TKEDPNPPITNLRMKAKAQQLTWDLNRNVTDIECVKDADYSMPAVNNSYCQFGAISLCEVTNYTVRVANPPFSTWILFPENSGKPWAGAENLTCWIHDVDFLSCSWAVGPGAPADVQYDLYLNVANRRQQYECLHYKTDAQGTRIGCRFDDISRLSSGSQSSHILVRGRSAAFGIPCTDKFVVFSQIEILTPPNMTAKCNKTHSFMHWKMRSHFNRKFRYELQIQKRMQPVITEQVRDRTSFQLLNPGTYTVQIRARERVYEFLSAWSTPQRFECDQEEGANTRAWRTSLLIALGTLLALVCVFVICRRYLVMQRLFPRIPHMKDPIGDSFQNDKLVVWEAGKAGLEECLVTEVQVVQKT

[2] = molecular target: T1, human CD123 (IL-3Rα, interleukin-3 …); test: cell-based or functional assay
[3] = molecular target: T1, human CD123 (IL-3Rα, interleukin-3 …); test: cell-based or functional assay; remark: listed apart in the source
[4] = molecular target: T1, human CD123 (IL-3Rα, interleukin-3 …); test: flow cytometry on HNT-34 cells, PE-conjugated goat anti-human secondary; remark: listed apart in the source

Binder | IC50, in vitro cytotoxicity on EOL-1 cells (AML) [3] [nM] | IC50, in vitro cytotoxicity on HNT-34 cells (AML) [3] [nM] | IC50, in vitro cytotoxicity on JM-1 cells (B-ALL) [3] [nM] | IC50, in vitro cytotoxicity on KASUMI-3 cells (AML) [3] [nM] | IC50, in vitro cytotoxicity on KCL-22 cells (CML) [3] [nM] | IC50, in vitro cytotoxicity on KG-1 cells (AML) [3] [nM] | IC50, in vitro cytotoxicity on KO52 cells (AML) [3] [nM] | IC50, in vitro cytotoxicity on KOPN8 cells (B-ALL) [3] [nM] | IC50, in vitro cytotoxicity on MOLM-1 cells (CML) [3] [nM] | IC50, in vitro cytotoxicity on MOLM-13 cells (AML) [3] [nM] | IC50, in vitro cytotoxicity on MV4-11 cells (AML) [3] [nM] | IC50, in vitro cytotoxicity on OCI-AML2 cells (AML) [3] [nM] | IC50, in vitro cytotoxicity on SHI-1 cells (AML) [3] [nM] | IC50, in vitro cytotoxicity on THP1 cells (AML) [3] [nM] | EC50 (read off the curve) [4] [nM] | further results
B1 | – | – | – | – | – | – | – | – | – | – | – | – | – | – | – | EC50 (read off the curve) [1]: ~0.06 nM
B2 | – | – | – | – | – | – | – | – | – | – | – | – | – | – | – | IC50, in vitro cytotoxicity on EOL-1 cells [2]: ~0.002 nM; IC50, in vitro cytotoxicity on KOPN-8 cells [2]: ~0.005 nM; IC50, in vitro cytotoxicity on MOLM-1 cells [2]: ~0.02 nM; fold loss of cytotoxicity when CD123 is blocked by the unconjugated chCD123-6 antibody [2]: ≥ 100 fold
B3 | 0.0047 | 0.0059 | 0.41 | 0.14 | 0.29 | 4.1 | 0.41 | 0.03 | 0.21 | 0.0012 | 0.0013 | 0.21 | 0.032 | 0.058 | – | –
B4 | 0.0025 | 0.002 | 0.024 | 0.0098 | 0.03 | 0.22 | 0.014 | 0.011 | 0.029 | 0.00049 | 0.00056 | 0.088 | 0.013 | 0.0067 | – | IC50, in vitro cytotoxicity on HNT-34 cells [2]: ~0.002 nM; IC50, in vitro cytotoxicity on MOLM-1 cells [2]: ~0.03 nM; IC50, in vitro cytotoxicity on SHI-1 cells [2]: ~0.01 nM; fold loss of cytotoxicity when CD123 is blocked by the unconjugated huCD123-6 antibody [2]: ≥ 100 fold; IC50, in vitro cytotoxicity on Granta519 cells (NHL) [3]: 0.0012 nM
B5 | – | – | – | – | – | – | – | – | – | – | – | – | – | – | ~0.1 | –
B6 | – | – | – | – | – | – | – | – | – | – | – | – | – | – | ~0.1 | –
B7 | – | – | – | – | – | – | – | – | – | – | – | – | – | – | ~0.2 | –
B8 | 0.009 | 0.023 | 0.32 | 2.8 | 2 | 0.85 | 0.39 | 0.053 | 1.1 | 0.0022 | 0.0016 | 0.14 | 0.17 | 0.19 | – | IC50, in vitro cytotoxicity on Granta519 cells (NHL) [3]: 0.012 nM
